# Patent US20260275312, “CRISPR NUCLEASE POLYPEPTIDES AND GENE EDITING SYSTEMS COMPRISING SUCH” (ARBOR BIOTECHNOLOGIES, INC., published 2026)
# T1: Nuclease W S925R (synthetic construct, S925R)
# T1 chain: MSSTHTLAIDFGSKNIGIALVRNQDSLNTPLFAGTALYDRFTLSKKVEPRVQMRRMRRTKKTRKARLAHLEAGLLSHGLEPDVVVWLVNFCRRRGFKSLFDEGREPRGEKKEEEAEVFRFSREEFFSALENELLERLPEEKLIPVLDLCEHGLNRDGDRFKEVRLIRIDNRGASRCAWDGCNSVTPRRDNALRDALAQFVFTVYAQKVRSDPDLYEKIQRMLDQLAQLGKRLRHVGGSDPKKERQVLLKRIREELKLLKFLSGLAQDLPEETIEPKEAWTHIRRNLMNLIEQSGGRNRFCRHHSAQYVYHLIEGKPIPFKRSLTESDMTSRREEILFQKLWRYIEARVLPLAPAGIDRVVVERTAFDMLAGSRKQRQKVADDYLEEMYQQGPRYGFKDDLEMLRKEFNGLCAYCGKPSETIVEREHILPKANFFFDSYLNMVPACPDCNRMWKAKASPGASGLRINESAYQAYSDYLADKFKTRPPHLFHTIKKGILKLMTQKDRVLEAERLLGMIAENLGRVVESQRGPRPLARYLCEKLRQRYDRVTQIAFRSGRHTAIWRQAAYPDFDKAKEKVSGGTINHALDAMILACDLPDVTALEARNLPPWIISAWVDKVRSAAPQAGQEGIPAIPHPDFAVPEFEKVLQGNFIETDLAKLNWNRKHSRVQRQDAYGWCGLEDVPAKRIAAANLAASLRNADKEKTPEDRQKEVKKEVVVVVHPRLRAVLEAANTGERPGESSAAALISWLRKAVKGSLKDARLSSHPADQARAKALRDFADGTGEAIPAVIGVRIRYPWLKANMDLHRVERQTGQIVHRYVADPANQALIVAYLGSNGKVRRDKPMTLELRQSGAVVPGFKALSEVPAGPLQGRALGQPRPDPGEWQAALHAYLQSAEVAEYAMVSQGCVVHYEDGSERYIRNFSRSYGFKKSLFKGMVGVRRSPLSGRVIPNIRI
# T2: Nuclease W E715R (synthetic construct, E715R)
# T2 chain: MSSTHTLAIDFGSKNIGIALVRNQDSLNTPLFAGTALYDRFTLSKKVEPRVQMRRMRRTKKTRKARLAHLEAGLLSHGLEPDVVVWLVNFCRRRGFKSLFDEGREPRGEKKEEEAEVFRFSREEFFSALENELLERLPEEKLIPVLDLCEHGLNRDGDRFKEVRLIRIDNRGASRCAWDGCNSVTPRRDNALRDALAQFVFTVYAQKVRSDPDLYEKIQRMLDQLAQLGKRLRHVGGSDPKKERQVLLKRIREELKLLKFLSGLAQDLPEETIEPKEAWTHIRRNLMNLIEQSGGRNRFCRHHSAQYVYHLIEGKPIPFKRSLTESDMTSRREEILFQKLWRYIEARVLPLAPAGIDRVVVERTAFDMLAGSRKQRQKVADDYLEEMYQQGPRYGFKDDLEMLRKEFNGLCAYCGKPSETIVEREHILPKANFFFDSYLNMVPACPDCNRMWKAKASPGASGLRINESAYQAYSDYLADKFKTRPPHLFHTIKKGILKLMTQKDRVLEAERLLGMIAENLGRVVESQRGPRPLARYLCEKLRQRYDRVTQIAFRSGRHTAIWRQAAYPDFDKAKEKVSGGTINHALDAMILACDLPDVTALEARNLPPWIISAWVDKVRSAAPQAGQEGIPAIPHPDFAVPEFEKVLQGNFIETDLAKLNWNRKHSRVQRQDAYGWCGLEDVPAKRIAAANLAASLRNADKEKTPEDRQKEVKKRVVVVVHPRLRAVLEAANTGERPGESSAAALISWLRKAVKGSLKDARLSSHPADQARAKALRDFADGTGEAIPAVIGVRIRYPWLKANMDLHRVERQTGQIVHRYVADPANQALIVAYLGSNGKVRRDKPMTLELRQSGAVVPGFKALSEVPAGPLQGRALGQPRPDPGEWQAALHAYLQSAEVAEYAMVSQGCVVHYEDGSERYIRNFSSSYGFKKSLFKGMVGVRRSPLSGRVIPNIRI
# Assays:
# Nuclease W S925R = target: T1, Nuclease W S925R; assay: cell_activity; HEK293T; PAM AAA; conditions: tags: N-term SV40 NLS, XTEN linker + C-term nucleoplasmin NLS
# Method: (§1) Approximately 16 hours prior to transfection, 25,000 HEK293T cells in DMEM/10% FBS+Pen/Strep (D10 media) were plated into each well of a 96-well plate. On the day of transfection, the cells were 50-90% confluent. For each well to be transfected, a mixture of Lipofectamine 2000™ (ThermoFisher Scientific) and Opti-MEM™ (ThermoFisher Scientific) was prepared and incubated at room temperature for 5 minutes (Solution 1). After incubation, the Lipofectamine 2000™:Opti-MEM™ mixture was added to a separate mixture containing the CRISPR nuclease plasmid (NLS-tagged), RNA guide plasmid, and Opti-MEM™ (Solution 2). In the case of negative controls, the CRISPR nuclease plasmid was excluded. Solutions 1 and 2 were mixed by pipetting up and down, then incubated at room temperature for 25 minutes. Following incubation, the Solution 1 and 2 mixture was added dropwise to each well of a 96-well plate containing the cells. Approximately 72 hours post transfection, cells were trypsinized by adding TrypLE™ (Thermo Fisher Scientific) to the center of each well and incubating at 37° C. for approximately 5 minutes. D10 media was then added to each well and mixed to resuspend cells. […]
# (§2) Cells were transfected, and samples were prepared for NGS as described in Example 1. Indel ratios, referring to the percentage of NGS reads comprising indels, were calculated for the reference and for each variant. […]
# Nuclease W E715R = target: T2, Nuclease W E715R; assay: cell_activity; HEK293T; PAM AAA; conditions: tags: N-term SV40 NLS, XTEN linker + C-term nucleoplasmin NLS
# Method: as §1, §2
binder,measurement,setting,value
W EMX1-T5 RNA guide ; EMX1-T5 target (W) (ssRNA ; dsDNA) RNA: UAAACUACAGUGGUGCCUGGGUUUCAGCUACCCUGAGUUUCUCAACUCCGUUGAGACUUCCUCAGGUUCAAGCUGAAAAGAGCAUCUGUCCGGAAGGACCACUCCGGGUUAGGGCAGACCCGGCUCUUGGGCUUCCUUGGUCUUUGACUCUGGAGGAAACCUUCCGGCGUGUCGCAAGACAAGAUGUGAGCCUG DNA 1: TAAACTACAGTGGTGCCTGG DNA 2: CCAGGCACCACTGTAGTTTA,fold change in indel ratio vs reference,Nuclease W S925R,3.44 fold indel vs reference
same,fold change in indel ratio vs reference,Nuclease W E715R,3.94 fold indel vs reference
